Data taken from paper PMC4033627 (Biochemistry, 2014).

B1: catalytic domain of Sst2 (residues 245–435), Sst2^cat (domain or fragment)
chain: AGTFKIHAYTEGGKPLRTIYLPKLLKKVFLDVVKPNTKKNLETCGILCGKLRQNAFFITHLVIPLQEATSDTCGTTDEASLFEFQDKHNLLTLGWIHTHPTQTCFMSSVDLHTHCSYQLMLPEAIAIVMAPSKNTSGIFRLLDPEGLQTIVKCRKPGLFHPHEGKVYTMVAQPGHVREINSKLQVVDLRVK
B2: Sst2^catD354A (Asp354Ala mutant of the catalytic domain of Sst2) (domain or fragment)
chain: AGTFKIHAYTEGGKPLRTIYLPKLLKKVFLDVVKPNTKKNLETCGILCGKLRQNAFFITHLVIPLQEATSDTCGTTDEASLFEFQDKHNLLTLGWIHTHPTQTCFMSSVALHTHCSYQLMLPEAIAIVMAPSKNTSGIFRLLDPEGLQTIVKCRKPGLFHPHEGKVYTMVAQPGHVREINSKLQVVDLRVK
B3: Sst2^catE286A (Glu286Ala mutant of the catalytic domain of Sst2) (domain or fragment)
chain: AGTFKIHAYTEGGKPLRTIYLPKLLKKVFLDVVKPNTKKNLATCGILCGKLRQNAFFITHLVIPLQEATSDTCGTTDEASLFEFQDKHNLLTLGWIHTHPTQTCFMSSVDLHTHCSYQLMLPEAIAIVMAPSKNTSGIFRLLDPEGLQTIVKCRKPGLFHPHEGKVYTMVAQPGHVREINSKLQVVDLRVK

Assays:
[1] = target: ubiquitin (from a pRSETA plasmid, for isothermal titration calorimetry) (UniProt P0CG48 1-76); experiment: ITC
[2] = target: human ubiquitin (from pGEX-6P1) (human, UniProt P0CG48 1-76); experiment: crystal structure

Row | Binder | Kd [1] [µM] | binding result [2]
1 | B1 | 10.2 ± 0.6 | 
2 | B2 |  | binds
3 | B3 | 3 ± 0.56 | 
